Columns and labels:
HipA mutant D309Q [1] = target: T1, HipA mutant D309Q (Escherichia coli, UniProt P23874 1-440, D309Q); assay: fluorescence polarisation
T1 sequence: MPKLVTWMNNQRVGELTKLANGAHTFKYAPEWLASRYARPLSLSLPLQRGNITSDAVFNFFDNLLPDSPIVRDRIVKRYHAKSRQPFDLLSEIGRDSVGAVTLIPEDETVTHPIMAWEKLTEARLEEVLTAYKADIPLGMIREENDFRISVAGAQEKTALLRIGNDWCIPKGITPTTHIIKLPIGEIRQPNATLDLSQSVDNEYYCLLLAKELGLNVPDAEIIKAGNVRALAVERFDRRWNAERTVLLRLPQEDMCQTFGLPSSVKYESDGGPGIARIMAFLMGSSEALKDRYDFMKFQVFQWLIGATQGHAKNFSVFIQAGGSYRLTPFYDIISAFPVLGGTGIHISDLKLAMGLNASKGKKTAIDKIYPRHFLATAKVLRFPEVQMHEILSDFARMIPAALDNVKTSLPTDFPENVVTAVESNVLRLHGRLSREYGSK

crystal structure = target: the molecule itself; assay: crystal structure
HipA mutant D309Q [2] = target: T1, HipA mutant D309Q; assay: crystal structure

## IREGGRTVGA [EF-Tu peptide IREGGRTVGA]
HipA mutant D309Q [1]
  Kd: 15 ± 5 µM

B1: HipB (natural protein)
chain: MMSFQKIYSPTQLANAMKLVRQQNGWTQSELAKKIGIKQATISNFENNPDNTTLTTFFKILQSLELSMTLCDAKNASPESTEQQNLEW
Crystal structure
  stoichiometry N: 2
HipA mutant D309Q [2]
  binding result: binds

Reference: PMC2764309 (Science (New York, N.Y.), 2009)
